Source: paper PMC3913770, “Characterization of New Polyol/H^+ Symporters in Debaryomyces hansenii” (PLoS ONE, 2014)

Tests used:
DhSgl1 = molecular target: T1, DhSgl1 (Debaryomyces hansenii, UniProt Q6BN62); test: initial extracellular alkalinization (H+ symport) in unbuffered yeast cell suspension, Michaelis-Menten fit; assay type: cell-based; conditions: pH 5, proton symport, one H+ per polyol assumed, maltose-grown S. cerevisiae cells
T1 construct: gene DEHA2E24310g; full-length ORF (626 aa) without stop, C-terminal GFP, plasmid pUG35, in S. cerevisiae YSH 1172 (strain MLY22)
T1 sequence (Q6BN62 entry or part of it): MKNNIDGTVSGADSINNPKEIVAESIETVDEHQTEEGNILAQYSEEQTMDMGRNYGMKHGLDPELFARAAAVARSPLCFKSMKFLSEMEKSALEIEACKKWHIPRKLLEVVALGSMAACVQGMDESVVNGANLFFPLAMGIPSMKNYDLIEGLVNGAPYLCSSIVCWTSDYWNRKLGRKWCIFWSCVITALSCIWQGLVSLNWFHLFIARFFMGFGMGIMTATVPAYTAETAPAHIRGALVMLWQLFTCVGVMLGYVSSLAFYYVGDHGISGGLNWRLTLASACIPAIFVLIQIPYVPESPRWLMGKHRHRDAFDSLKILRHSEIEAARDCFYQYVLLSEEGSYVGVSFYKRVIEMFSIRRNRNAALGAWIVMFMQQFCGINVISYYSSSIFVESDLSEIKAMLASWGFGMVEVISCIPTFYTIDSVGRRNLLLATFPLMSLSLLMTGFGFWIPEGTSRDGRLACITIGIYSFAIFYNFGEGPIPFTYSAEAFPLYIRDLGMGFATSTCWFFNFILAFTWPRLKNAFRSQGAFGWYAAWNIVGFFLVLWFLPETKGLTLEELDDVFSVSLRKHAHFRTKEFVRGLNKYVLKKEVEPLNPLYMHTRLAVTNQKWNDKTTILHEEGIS
Excerpt: initial extracellular alkalinization (H+ symport) in unbuffered yeast cell suspension, Michaelis-Menten fit on DhSgl1

DhSyl1 = molecular target: T2, DhSyl1 (Debaryomyces hansenii, UniProt B5RT81); test: inhibition of [U-14C] sorbitol uptake; assay type: cell-based; conditions: 1.5 mM [U-14C] sorbitol, 20 mM mannitol
T2 construct: gene DEHA2C05896g; full-length ORF (649 aa) without stop, C-terminal GFP, plasmid pUG35, in S. cerevisiae YSH 1172 (strain MLY9); any CUG codon is read as Leu in the host
T2 sequence (B5RT81 1-649): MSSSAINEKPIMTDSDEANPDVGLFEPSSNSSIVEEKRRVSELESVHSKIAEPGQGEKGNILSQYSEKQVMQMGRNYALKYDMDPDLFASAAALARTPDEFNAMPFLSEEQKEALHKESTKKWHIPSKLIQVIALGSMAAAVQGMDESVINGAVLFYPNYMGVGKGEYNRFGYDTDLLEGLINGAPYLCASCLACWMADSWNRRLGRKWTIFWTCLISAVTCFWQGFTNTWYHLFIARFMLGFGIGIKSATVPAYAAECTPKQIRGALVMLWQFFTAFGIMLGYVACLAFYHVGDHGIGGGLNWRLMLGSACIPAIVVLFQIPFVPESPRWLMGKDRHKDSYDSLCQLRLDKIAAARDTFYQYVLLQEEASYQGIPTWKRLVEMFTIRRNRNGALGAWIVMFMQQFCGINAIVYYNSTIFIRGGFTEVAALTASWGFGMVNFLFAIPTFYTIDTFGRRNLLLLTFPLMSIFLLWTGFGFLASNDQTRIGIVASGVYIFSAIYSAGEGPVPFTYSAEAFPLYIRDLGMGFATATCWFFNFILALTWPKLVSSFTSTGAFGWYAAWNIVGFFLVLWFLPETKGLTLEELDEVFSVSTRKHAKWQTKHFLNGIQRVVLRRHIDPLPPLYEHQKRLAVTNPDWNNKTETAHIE

[1] = substrate: OC[C@@H](O)[C@@H](O)[C@H](O)[C@@H](O)CO; test: initial extracellular alkalinization (H+ symport) in unbuffered yeast cell suspension, Michaelis-Menten fit; assay type: cell-based, Debaryomyces hansenii; conditions: pH 5, proton symport, one H+ per polyol assumed, maltose-grown S. cerevisiae cells
Excerpt: (§1) initial extracellular alkalinization (H+ symport) in unbuffered yeast cell suspension, Michaelis-Menten fit on DhSyl1

[2] = substrate: OC[C@@H](O)[C@@H](O)[C@H](O)[C@H](O)CO; test: as above; assay type: cell-based, Debaryomyces hansenii; conditions: pH 5, proton symport, one H+ per polyol assumed, maltose-grown S. cerevisiae cells
Excerpt: as §1

[3] = substrate: OC[C@@H](O)[C@@H](O)[C@@H](O)CO; test: as above; assay type: cell-based, Debaryomyces hansenii; conditions: pH 5, proton symport, one H+ per polyol assumed, maltose-grown S. cerevisiae cells
Excerpt: as §1

[4] = substrate: OC[C@@H](O)C(O)[C@H](O)CO; test: as above; assay type: cell-based, Debaryomyces hansenii; conditions: pH 5, proton symport, one H+ per polyol assumed, maltose-grown S. cerevisiae cells
Excerpt: as §1

[5] = substrate: OC[C@@H](O)[C@H](O)[C@H](O)[C@@H](O)CO; test: as above; assay type: cell-based, Debaryomyces hansenii; conditions: pH 5, proton symport, one H+ per polyol assumed, maltose-grown S. cerevisiae cells
Excerpt: as §1

[6] = substrate: OC[C@@H](O)[C@@H](O)[C@H](O)[C@@H](O)CO; test: as above; assay type: cell-based, Debaryomyces hansenii; conditions: pH 5, proton symport, one H+ per polyol assumed, maltose-grown S. cerevisiae cells; remark: listed apart in the source
Excerpt: (§2) initial extracellular alkalinization (H+ symport) in unbuffered yeast cell suspension, Michaelis-Menten fit on DhSyl2

[7] = substrate: OC[C@@H](O)[C@@H](O)[C@H](O)[C@H](O)CO; test: as above; assay type: cell-based, Debaryomyces hansenii; conditions: pH 5, proton symport, one H+ per polyol assumed, maltose-grown S. cerevisiae cells; remark: listed apart in the source
Excerpt: as §2

[8] = substrate: OC[C@@H](O)[C@@H](O)[C@@H](O)CO; test: as above; assay type: cell-based, Debaryomyces hansenii; conditions: pH 5, proton symport, one H+ per polyol assumed, maltose-grown S. cerevisiae cells; remark: listed apart in the source
Excerpt: as §2

[9] = substrate: OC[C@@H](O)C(O)[C@H](O)CO; test: as above; assay type: cell-based, Debaryomyces hansenii; conditions: pH 5, proton symport, one H+ per polyol assumed, maltose-grown S. cerevisiae cells; remark: listed apart in the source
Excerpt: as §2

[10] = substrate: O[C@H]1[C@H](O)[C@H](O)[C@@H](O)[C@H](O)[C@H]1O; test: as above; assay type: cell-based, Debaryomyces hansenii; conditions: pH 5, proton symport, one H+ per polyol assumed, maltose-grown S. cerevisiae cells
Excerpt: initial extracellular alkalinization (H+ symport) in unbuffered yeast cell suspension, Michaelis-Menten fit on DhSyi1

With `OC[C@@H](O)[C@H](O)[C@H](O)[C@@H](O)CO` [D-Galactitol] the Km (DhSgl1) was 1.93 ± 0.77 mM.

For `OC[C@@H](O)[C@@H](O)[C@H](O)[C@H](O)CO` [D-Mannitol], the “% reduction of sorbitol uptake at 20 mM” value (DhSyl1) was 70%.

B1: DhSyl1 (Debaryomyces hansenii CBS767) (protein)
chain: T2 sequence (B5RT81 1-649)
notes: full-length ORF (649 aa) without stop, C-terminal GFP, plasmid pUG35, in S. cerevisiae YSH 1172 (strain MLY9); any CUG codon is read as Leu in the host
For B1, the Km [1] was 11.51 ± 2.50 mM, the Km [2] was 0.30 ± 0.09 mM and the Km [3] was 11.44 ± 4.46 mM. For the same molecule, the Km [4] was 0.96 ± 0.32 mM and the Km [5] was 12.33 ± 1.50 mM.

B2: DhSyl2 (Debaryomyces hansenii CBS767) (protein)
chain: MPSETNPEKPVALRSDNPHEENGLFEHSSNSSFNEKRRVSELESIHSKIAEPGQGEKGNILSQYSEKQVMQMGRNYALKYDLDPDLFARAAALARTPDDFNAMPFITEEEKQALHKEHTKKWHIPSKLIQVIALGSMAAAVQGMDESVINGALLFYPNYMGVGKGEYNRFGYDTDMIEGLINGAPYLCASCIACWMSDLWNRHLGRKWTIFWTCLISALTCFWQGFTNTWYHLFIARFMLGFGIGIKSATVPAYAAECTPKQIRGALVMLWQFFTAVGIMFGYVACLAFYHVGDHGIGGGLNWRLMLGSACIPAIIVLFQIPFVPESPRWLMGKDRHKDSYDSLCQLRLDKIAAARDTFYQYVLLQEEASYQGIPTWKRLVEMFTIRRNRNGALGAWIVMFMQQFCGINAIVYYNSTIFIQGGFTEVDALTASWGFGMVNFLFAIPTFYTIDTFGRRNLLLFTFPLMALFLIWTGLGFVAEDGTKTQTGIVASGVYIFSAIYSAGEGPVPFTYSAEAFPLYIRDIGMGFATATCWFFNFILALTWPKLVSSFGRTGAFMWYAAWNIAGFFMVLWFLPETKGLTLEELDEVFSVSTRKHAIYQTKSILNSFQRVVLRRHIDPLPPLYEHQKRLAVTNPDWNNKTETAHIE
notes: full-length ORF (649 aa) without stop, C-terminal GFP, plasmid pUG35, in S. cerevisiae YSH 1172 (strain MLY12); any CUG codon is read as Leu in the host
In the case of B2, the Km [6] is reported as 13.82 ± 2.12 mM, the Km [7] is reported as 0.93 ± 0.16 mM and the Km [8] is reported as 18.31 ± 3.23 mM. The Km [9] was 0.46 ± 0.21 mM.

B3: DhSyi1 (Debaryomyces hansenii CBS767) (protein)
chain: MATEDKELGVVITDVSKLSEKIEEQNNIISKGGSVDDYLYEKRPWWKVNYLVRLNFCIFLITLSSTNNGYDGSMLNGLQSVSYWPEKMGNPQGSVLGALSNGNVFGVVLSFVCASWLADKFGRWRCIFVGQTITILGSILQGVSTNYGFFLASRIILGFGVGIAGVSSPSLISELAYPTHRATATTFYNVCWYLGAIIAAWVTYGTLNIENDYSWRIPSYLQAALPCLQIAFFWMVPESPRYLINKDRISDAEKVLRKFHAGGETHERANDLVSFEIEEIQAALEIEKLSSNSRYSDFITMPTFRKRLFLAVFVAVIMQLSGNGLVSYYLNKVLNSIGITDPHEQLKINGCLMVYNLVISSVVASVAGRFKRRSMFLICTILMLVFYVIWTILSAINQQRNFEQKSLGNGVIAMIFFYYLAYDIGANGLPFLYITEIMPYSHRAKGMNIFTVSQNIIIIFNGFVNPIAMDAIEWKYYIVYCCILAVEVITVLFTFVETSAYTLEEVAKVFGDDPGQTLIHLSSAPPKPEVGHIETV
notes: full-length ORF (536 aa) without stop, C-terminal GFP, plasmid pUG35, in S. cerevisiae YSH 1172 (strain MLY23); any CUG codon is read as Leu in the host
Work on B3 yielded a Km [10] of 18.64 ± 9.23 mM.
